In patent publication US10266631B2, “Method for preparing peptide-polymer conjugate with stabilized α-helix secondary structure and peptide-polymer conjugate prepared thereby” (INDUSTRY-ACADEMIC COOPERATION FOUNDATION, YONSEI UNIVERSITY, priority 2016, dated 2019):
* marks the point of attachment. Acryloyl = C=CC(=O)*

Experiment: Circular dichroism (CD) spectroscopy of α-helix secondary structure
Assay type: physicochemical
Settings: 25° C.
Procedure: CD spectra were recorded using a Chirascan circular dichroism spectrometer equipped with a Peltier temperature controller (Applied Photophysics Ltd.). The CD spectra of peptides were recorded at 190-260 nm.
The temperature was 25° C. and the peptide concentration was 6 μM.
The α-helix peptide substituted with an acryloyl group prepared in Preparation Example 1 (bisAAm-p53) was dissolved in a 10% HFIP solution (based on final concentration). After mixing with […] acrylamide, a peptide-polymer conjugate was prepared through free radical induced polymerization by adding ammonium persulfate (APS) and N,N,N′,N′-tetramethylethylenediamine (TEMED). The prepared 9 μM α-helix peptide multimer was diluted with a 0.2% HIFP solution.
Before CD spectrum measurement, HFIP was completely evaporated from the samples through centrifugation.

Preparation Example 1: p53-derived peptide Ac-QSQQTFKNLWRLLKQN-NH2 with both lysine ε-amines (i, i+7) acryloylated; FIG. 16A (Ac-QSQQTFK(Acryloyl)NLWRLLK(Acryloyl)QN-NH2; SMILES C=CC(=O)NCCCC[C@H](NC(=O)[C@H](CC(C)C)NC(=O)[C@H](CC(C)C)NC(=O)[C@H](CCCNC(=N)N)NC(=O)[C@H](Cc1c[nH]c2ccccc12)NC(=O)[C@H](CC(C)C)NC(=O)[C@H](CC(N)=O)NC(=O)[C@H](CCCCNC(=O)C=C)NC(=O)[C@H](Cc1ccccc1)NC(=O)[C@@H](NC(=O)[C@H](CCC(N)=O)NC(=O)[C@H](CCC(N)=O)NC(=O)[C@H](CO)NC(=O)[C@H](CCC(N)=O)NC(C)=O)[C@@H](C)O)C(=O)N[C@@H](CCC(N)=O)C(=O)N[C@@H](CC(N)=O)C(N)=O)
α-helix secondary structure (CD spectrum) (10% HFIP solution (HFIP:water=1:9, v/v), peptide 6 μM (FIG. 4)): stabilized
α-helix secondary structure (CD spectrum) (distilled water, peptide 6 μM (FIG. 3)): not stabilized but unfolded
